Measurements from article PMC3029384, “Dimeric SecA Couples the Preprotein Translocation in an Asymmetric Manner” (PLoS ONE, 2011).

B1: His6-tagged SecB (natural protein, Escherichia coli)
chain: MSEQNNTEMTFQIQRIYTKDISFEAPNAPHVFQKDWQPEVKLDLDTASSQLADDVYEVVLRVTVTASLGEETAFLCEVQQGGIFSIAGIEGTQMAHCLGAYCPNILFPYARECITSMVSRGTFPQLNLAPVNFDALFMNYLQQQAGEGTEEHQ
notes: SecB chaperone, Escherichia coli; The tag is named explicitly only in Materials and for the SecB/proOmpA assembly; also called SecB tetramer; tetrameric SecB
B2: proOmpA (natural protein, Escherichia coli, UniProt P0A910 1-346, looked up)
chain: MKKTAIAIAVALAGFATVAQAAPKDNTWYTGAKLGWSQYHDTGFINNNGPTHENQLGAGAFGGYQVNPYVGFEMGYDWLGRMPYKGSVENGAYKAQGVQLTAKLGYPITDDLDIYTRLGGMVWRADTKSNVYGKNHDTGVSPVFAGGVEYAITPEIATRLEYQWTNNIGDAHTIGTRPDNGMLSLGVSYRFGQGEAAPVVAPAPAPAPEVQTKHFTLKSDVLFNFNKATLKPEGQAALDQLYSQLSNLDPKDGSVVVLGYTDRIGSDAYNQGLSERRAQSVVDYLISKGIPADKISARGMGESNPVTGNTCDNVKQRAALIDCLAPDRRVEIEVKGIKDVVTQPQA
notes: Precursor form (unfolded, diluted out of 6 M urea); also called preprotein; source: kept in 6 M urea before dilution

How the values were obtained:
SecA (Escherichia coli) = SecA (Escherichia coli) (UniProt P10408); settings: cited from earlier work
[1] = target: the molecule itself; assay: SEC; SecA monomer 3 uM and SecB monomer 30 uM incubated 1 h at 4 °C in buffer A (20 mM HEPES-KOH, 30 mM KCl, 1 mM DTT, pH 7.4); Superdex G200 analytical column at 4 °C; peak fraction checked by SDS-PAGE
His6-tagged SecB = target: B1; assay: SEC; SecA monomer 3 uM and preformed SecB/proOmpA 2 uM incubated 1 h at 4 °C in buffer A (20 mM HEPES-KOH, 30 mM KCl, 1 mM DTT, pH 7.4); Superdex G200 analytical column at 4 °C; fractions checked by SDS-PAGE; settings: both partners purified

Molecule: SecA (from UniProt P10408)
Kd (SecA (Escherichia coli)): 1000 nM

Molecule: B1
stoichiometry N [1]: 4

Molecule: B2
stoichiometry N (His6-tagged SecB): 1 proOmpA per SecB tetramer
